Target: T1, Gα12 (human, UniProt Q03113 1-381)
T1 sequence: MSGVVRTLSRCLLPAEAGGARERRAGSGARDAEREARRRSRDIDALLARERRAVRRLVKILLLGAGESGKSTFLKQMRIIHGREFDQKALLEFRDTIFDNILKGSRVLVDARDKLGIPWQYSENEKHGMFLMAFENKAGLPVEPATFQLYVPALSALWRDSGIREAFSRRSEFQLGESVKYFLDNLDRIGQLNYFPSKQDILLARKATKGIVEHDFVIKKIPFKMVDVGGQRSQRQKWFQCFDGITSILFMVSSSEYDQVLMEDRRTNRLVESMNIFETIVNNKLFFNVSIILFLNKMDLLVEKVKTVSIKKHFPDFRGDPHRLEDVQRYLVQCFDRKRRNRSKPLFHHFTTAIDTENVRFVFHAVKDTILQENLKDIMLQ
Test: cell-based or functional assay

B1: M3-muscarinic acetylcholine receptor (M3R) (receptor)
chain: not shown
B1 was tested, and the “SRE-luciferase reporter activity after carbachol stimulation (10 µM, 6 hours)” value was 76.

Reference: patent US20210145828A1 (RUTGERS THE STATE UNIVERSITY OF NEW JERSEY, published 2021)
